The target in test [1] is HLA-A*02:01. Description: IEDB peptide-MHC binding, purified MHC/competitive/fluorescence; ≥ and ≤ were set here for values at or beyond the usual limits of such assays.
The target of another test is HLA-B*40:01. Description: IEDB peptide-MHC binding, purified MHC/direct/fluorescence; filed as Kd, often an IC50 or EC50 that approximates it; ≥ and ≤ were set here for values at or beyond the usual limits of such assays.
The target of another test is HLA-A*11:01. Described as above.
A further test has as its target HLA-A*03:01. Described as above.
Another test has as its target HLA-B*27:05. The description is as above.
Test [2] concerns the target HLA-A*02:01. Described as above.
The next test deals with HLA-A*69:01. The test is described as above.
The target of test [3] is HLA-B*07:02. The test can be described thus: IEDB peptide-MHC binding, purified MHC/competitive/radioactivity; filed as Kd, often an IC50 or EC50 that approximates it; ≥ and ≤ were set here for values at or beyond the usual limits of such assays.
The target in another test is HLA-A*01:01. Description: IEDB peptide-MHC binding, purified MHC/direct/fluorescence; filed as Kd, often an IC50 or EC50 that approximates it; ≥ and ≤ were set here for values at or beyond the usual limits of such assays.
The target in another test is HLA-A*31:01. The test can be described thus: IEDB peptide-MHC binding, purified MHC/competitive/radioactivity; filed as Kd, often an IC50 or EC50 that approximates it; ≥ and ≤ were set here for values at or beyond the usual limits of such assays. As to conditions: source organism: SARS coronavirus Tor2.
For the next test, the target named is HLA-A*68:01. Described as above. As to conditions: source organism: SARS coronavirus Tor2.
The target in another test is HLA-A*33:01. Described as above. As to conditions: source organism: SARS coronavirus Tor2.
The next test deals with HLA-B*53:01. The test is described as above. As to conditions: source organism: Dengue virus 2 Jamaica/1409/1983.
Test [4] concerns the target HLA-B*07:02. The test can be described thus: IEDB peptide-MHC binding, purified MHC/direct/fluorescence; filed as Kd, often an IC50 or EC50 that approximates it; ≥ and ≤ were set here for values at or beyond the usual limits of such assays. As to conditions: source organism: dengue virus type 4.
The next test has as its target HLA-B*51:01. Description: IEDB peptide-MHC binding, purified MHC/competitive/radioactivity; filed as Kd, often an IC50 or EC50 that approximates it; ≥ and ≤ were set here for values at or beyond the usual limits of such assays.
In another test the target is HLA-A*02:03. The test is described as above.
Another test concerns the target HLA-A*02:02. The description is as above.
The next test concerns the target HLA-A*02:06. The test is described as above.
In another test the target is HLA-B*15:01. Description: IEDB peptide-MHC binding, purified MHC/direct/fluorescence; filed as Kd, often an IC50 or EC50 that approximates it; ≥ and ≤ were set here for values at or beyond the usual limits of such assays.
A further test addresses HLA-B*58:01. The test is described as above.
Where [5] appears, read: source organism: Francisella tularensis subsp. holarctica LVS.
The mark [6] stands for this setting: source organism: Vibrio vulnificus.
The mark [7] stands for this setting: source organism: Dengue virus 3 Martinique/1243/1999.
Where [8] appears, read: source organism: Mammarenavirus juninense.
[9] abbreviates: source organism: Vaccinia virus WR.
[10] abbreviates: source organism: Yersinia pestis.
Where [11] appears, read: source organism: Lassa virus Josiah.
[12] abbreviates: source organism: West Nile virus.

Here are results for 33 sequences from the Immune Epitope Database (IEDB).

A value given as a limit tells only on which side of the number the result lay.

Broadly, the IC50 is the concentration at which inhibition is half-maximal. High values mean weaker potency in that assay, low ones greater potency in that assay. As a reminder, the Kd is the constant that tells how readily two partners part at equilibrium.

As for RAADEPPLV, in the test with HLA-A*02:01 [1] (source organism: Vaccinia virus), the IC50 amounted to 2.83 µM.
The sequence REAKATRPL had a dissociation constant (Kd) with HLA-B*40:01 (source organism: Mycobacterium tuberculosis) of 0.0808 µM.
As for RIYCQENPY, the Kd was determined as 0.0263 µM with HLA-A*11:01 (setting [5]) and 0.0917 µM with HLA-A*03:01 (setting [5]).
As to RRLKAEAQM, the equilibrium dissociation constant (Kd) in the test with HLA-B*27:05 (source organism: Mammarenavirus lassaense) is 0.053 µM.
For SAWESFWRI, the Kd was determined as 0.0128 µM with HLA-A*02:01 [2] (setting [6]) and 0.0014 µM with HLA-A*69:01 (setting [6]).
On to SPGYVLGVFL, for which the dissociation constant (Kd) in the test with HLA-B*07:02 [3] (source organism: Dengue virus 4 Dominica/814669/1981) was 0.238 µM.
On to SPPETQKAEL, for which, in the test with HLA-B*07:02 [3] (setting [7]), the dissociation constant (Kd) amounted to 0.0284 µM.
As to SSSLTSLLK, the equilibrium dissociation constant (Kd) with HLA-A*01:01 (source organism: SARS-CoV1) was 1.11 µM; with HLA-A*31:01 it was 4.76 µM; in the test with HLA-A*68:01, 9.33 µM; in the test with HLA-A*33:01, not below 41.5 µM.
On to SVTRLENLMW, for which the dissociation constant Kd with HLA-B*53:01 is 0.437 µM.
As to TLHFLTRGK, in the test with HLA-A*03:01 (setting [8]), the Kd came out at 0.344 µM.
In the test with HLA-A*02:01 [2] (source organism: Burkholderia pseudomallei), TMGPHPAGV had a Kd of 0.0007 µM.
In the case of TPEGIIPTL, the Kd with HLA-A*69:01 (source organism: dengue virus type 4) was 2.72 µM; in the test with HLA-B*07:02 [4], 9.24 µM.
On to TPMLRHTIEN, for which the Kd with HLA-B*07:02 [3] (setting [7]) was 1.02 µM.
As for TPRAKRGTA, the Kd with HLA-B*07:02 [3] (source organism: Dengue virus 1 Brazil/97-11/1997) was determined as 0.227 µM.
For the sequence TPVTTWENV, the Kd with HLA-B*51:01 (setting [7]) was found to be 12.9 µM.
On to VAEIQPQWI, for which, in the test with HLA-B*51:01 (source organism: Dengue virus 4 Philippines/H241/1956), the dissociation constant Kd was not below 20.9 µM.
Consider VAFLILPQA, for which, in the test with HLA-A*02:01 [1] (source organism: Zaire ebolavirus), the concentration for half-maximal inhibition (IC50) stood at 0.52 µM. This lies in the sub-micromolar range.
On to VIKLVKSLV, for which the dissociation constant Kd with HLA-A*02:03 (setting [9]) turned out to be 0.126 µM; in the test with HLA-A*02:02 (setting [9]), 1.03 µM; with HLA-A*02:06 (setting [9]), 4.12 µM.
As for VIRHVDGKI, the Kd amounted to 0.978 µM with HLA-A*02:03 (setting [9]), 8.55 µM in the test with HLA-A*02:02 (setting [9]) and 9.27 µM with HLA-A*02:06 (setting [9]).
VPMAGPLVA: the dissociation constant (Kd) in the test with HLA-B*07:02 [3] (setting [7]) was found to be 0.056 µM.
With VQQESSFVM, the dissociation constant (Kd) with HLA-A*11:01 (source organism: SARS-CoV1) is not below 20.7 µM; with HLA-B*27:05 (source organism: SARS-CoV1), 4.77 µM; with HLA-B*15:01 (source organism: SARS-CoV1), 0.0674 µM; with HLA-B*40:01 (source organism: SARS-CoV1), 7.46 µM; with HLA-A*02:01 [2] (source organism: SARS-CoV1) it was 1.07 µM.
Take VSFSMVGLF: the dissociation constant Kd with HLA-B*58:01 (setting [8]) turned out to be 0.119 µM.
On to VSIPITAAAW, for which the equilibrium dissociation constant (Kd) in the test with HLA-B*53:01 was 0.402 µM.
On to VSWKPWSSK, for which the Kd in the test with HLA-A*03:01 (source organism: Cryptosporidium parvum) is 0.0507 µM.
In the case of VTKRDESSI, the dissociation constant (Kd) was 2.14 µM with HLA-A*02:03 (setting [9]), 8.05 µM with HLA-A*02:02 (setting [9]) and not below 38.3 µM in the test with HLA-A*02:06 (setting [9]).
Consider VVYRGTTTY, for which the equilibrium dissociation constant (Kd) with HLA-B*15:01 (source organism: SARS-CoV1) is 0.11 µM; in the test with HLA-B*58:01 (source organism: SARS-CoV1), 0.281 µM; in the test with HLA-A*31:01 it was 9.74 µM; in the test with HLA-A*68:01 it was 8.79 µM; in the test with HLA-A*33:01, not below 77.7 µM.
WPLNEGVMAV: the dissociation constant Kd with HLA-B*51:01 (setting [7]) stood at 1.67 µM.
On to WQNLAWAGV, for which the figures for the Kd in the test with HLA-A*02:01 [2] (setting [10]) and with HLA-A*69:01 (setting [10]) were 0.0536 µM and 7 µM, respectively.
On to WTLDANINA, for which the 50% inhibitory concentration (IC50) in the test with HLA-A*02:01 [1] (source organism: Sudan ebolavirus) stood at 3.85 µM.
For YAAEMVEYL, the results for the Kd with HLA-A*02:03 (setting [9]), with HLA-A*02:02 (setting [9]) and in the test with HLA-A*02:06 (setting [9]) were 0.00207 µM, 0.000524 µM and 0.0118 µM, respectively.
The corresponding values for YAGTIKESLL are 4.04 µM, 1.02 µM and 1.77 µM.
Turning to YCSNIKLQVV, the dissociation constant Kd in the test with HLA-A*02:03 (setting [11]) came to 0.801 µM; in the test with HLA-A*02:02 (setting [11]), 1.23 µM; in the test with HLA-A*02:06 (setting [11]), 7.12 µM.
YQTDSGCWY: the equilibrium dissociation constant (Kd) was determined as 6.06 µM in the test with HLA-A*01:01 (setting [12]) and 1.34 µM in the test with HLA-B*15:01 (setting [12]).
